Data taken from PMC2670953 (Journal of molecular biology, 2009).

Biological target: DNA polymerase II (Pol II) of E. coli (E. coli, UniProt P21189 1-783)
Experiment: SPR

Chain of DNA polymerase II (Pol II) of E. coli (P21189 whole entry): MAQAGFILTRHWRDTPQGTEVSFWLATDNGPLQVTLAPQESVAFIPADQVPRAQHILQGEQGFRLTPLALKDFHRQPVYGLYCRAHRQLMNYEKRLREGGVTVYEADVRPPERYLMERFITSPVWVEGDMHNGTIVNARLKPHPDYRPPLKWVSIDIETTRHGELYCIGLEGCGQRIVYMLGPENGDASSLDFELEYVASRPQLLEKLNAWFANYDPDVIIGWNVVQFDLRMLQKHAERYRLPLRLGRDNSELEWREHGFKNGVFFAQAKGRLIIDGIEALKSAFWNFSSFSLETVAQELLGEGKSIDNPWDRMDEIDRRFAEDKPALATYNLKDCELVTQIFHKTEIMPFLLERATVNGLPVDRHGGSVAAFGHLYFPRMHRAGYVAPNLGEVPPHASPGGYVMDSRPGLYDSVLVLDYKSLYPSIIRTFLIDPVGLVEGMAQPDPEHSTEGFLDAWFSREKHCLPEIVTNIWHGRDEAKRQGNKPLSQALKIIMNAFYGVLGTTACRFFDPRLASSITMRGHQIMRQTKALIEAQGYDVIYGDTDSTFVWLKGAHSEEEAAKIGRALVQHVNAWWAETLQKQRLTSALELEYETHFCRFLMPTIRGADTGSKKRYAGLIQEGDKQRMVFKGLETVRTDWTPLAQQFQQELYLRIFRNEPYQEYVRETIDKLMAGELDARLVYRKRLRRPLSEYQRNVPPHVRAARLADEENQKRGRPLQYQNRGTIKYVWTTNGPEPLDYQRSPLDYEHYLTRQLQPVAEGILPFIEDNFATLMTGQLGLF

B1: mutant β^148–152 sliding clamp, N-terminally His6 and cAMP-dependent kinase motif tagged (natural protein, E. coli)
chain: MKFTVEREHLLKPLQQVSGPLGGRPTLPILGNLLLQVADGTLSLTGTDLEMEMVARVALVQPHEPGATTVPARKFFDICRGLPEGAEIAVQLEGERMLVRSGRSRFSLSTLPAADFPNLDDWQSEVEFTLPQATMKRLIEATQFSMAAAAAAYYLNGMLFETEGEELRTVATDGHRLAVCSMPIGQSLPSHSVIVPRKGVIELMRMLDGGDNPLRVQIGSNNIRAHVGDFIFTSKLVDGRFPDYRRVLPKNPDKHLEAGCDLLKQAFARAAILSNEKFRGVRLYVSENQLKITANNPEQEEAEEILDVTYSGAEMEIGFNVSYVLDVLNALKCENVRMMLTDSVSSVQIEDAASQSAAYVVMPMRL
- Kd: 182 nM
- koff: 0.00273 s⁻¹
- kon: 15100 M⁻¹ s⁻¹
